Columns and labels:
[1] = target: human CSF-1R, full length, on cells (human) (UniProt P07333); assay: displacement of 1.5 nM ^125I-H27K15 (competitor) on EL4-CSF-1R cells, Cheng-Prusoff
[2] = target: human CSF-1R, full length, on cells (human) (UniProt P07333); assay: displacement of 1.5 nM ^125I-H27K15 (competitor) on EL4-CSF-1R cells
[3] = target: CSF-1R20-512-Fc (R&D Systems cat. 329-MR) (human) (UniProt P07333); assay: competition ELISA, co-incubation: coated Fc-D1-D5 human CSF-1R, mAb and biotinylated CSF-1(1-444) together 1 hour; streptavidin-HRP
[4] = target: CSF-1R20-512-Fc (R&D Systems cat. 329-MR) (human) (UniProt P07333); assay: competition ELISA, post-incubation: coated Fc-D1-D5 human CSF-1R, biotinylated CSF-1(1-444) 1 hour, then mAb 1 hour; streptavidin-HRP
[5] = target: CSF-1R20-512-Fc (R&D Systems cat. 329-MR) (human) (UniProt P07333); assay: competition ELISA with biotinylated CSF-1(1-444) on coated CSF-1R-Fc, saturation doses, pre-, co- or post-incubation
[6] = target: CSF-1R20-512-Fc (R&D Systems cat. 329-MR) (human) (UniProt P07333); assay: competition ELISA, pre-incubation: coated Fc-D1-D5 human CSF-1R, mAb 1 hour, then biotinylated CSF-1(1-444) 1 hour; streptavidin-HRP
[7] = target: human CSF-1R, full length, on cells (human) (UniProt P07333); assay: displacement of ^125I-H27K15 on EL4-CSF-1R cells

Substance	Ki [1] [nM]	IC50 [2] [nM]	IC50 (read off the curve) [3] [µg/mL]	IC50 (read off the curve) [4] [µg/mL]	decrease of the CSF-1 binding to CSF-1R (%) [5] [%]	IC50 (read off the curve) [6] [µg/mL]	Ki [7] [nM]
mAb 3291 (murine IgG1, clone 61701, R&D Systems MAB3291) (antibody)	1.28	2.18	1	0.6	30 to 40	0.5	> 1
mAb JF14 (murine IgG1, Santa Cruz sc-80174) (antibody)	1.78	3.02					> 1

Source: patent publication US20170002081A1
